Source: FireProtDB (doi:10.1110/ps.051460505)
Values joined by “and” are separate entries in the source; they are usually repeats but may differ in a detail not shown here. Equal values may be shown once.

B1: Gamma-crystallin D, P07320 (parent)
chain: MGKITLYEDRGFQGRHYECSSDHPNLQPYLSRCNSARVDSGCWMLYEQPNYSGLQYFLRRGDYADHQQWMGLSDSVRSCRLIPHSGSHRIRLYEREDYRGQMIEFTEDCSCLQDRFRFNEIHSLNVLEGSWVLYELSNYRGRQYLLMPGDYRRYQDWGATNARVGSLRRVIDFS

Variants of: B1
Conditions: Homo sapiens; pH 7; 37 °C; GdnHCl; Fluorescence; Sodium phosphate 10 mM; transition: 3; structure 1HK0; whole UniProt chain shown

| Variant | ddG of mutation (higher = less stable) | denaturant m value | denaturant midpoint (higher = more stable) | unfolding free energy |
| --- | --- | --- | --- | --- |
| R80A | 1 kcal/mol and 1.3 kcal/mol | 3.4 kcal/mol/M and 2.7 kcal/mol/M | 1.8 M and 2.9 M | 6.7 kcal/mol and 7.6 kcal/mol |
| Q55A Q143A |  | 3.5 kcal/mol/M and 3.1 kcal/mol/M | 1.8 M and 3.1 M | 6.3 kcal/mol and 9.6 kcal/mol |
| Q55A |  | 3.8 kcal/mol/M and 3.4 kcal/mol/M | 2 M and 2.9 M | 7.5 kcal/mol and 9.6 kcal/mol |
| R80A M147A |  | 3.2 kcal/mol/M | 1.7 M and 2.8 M | 5.6 kcal/mol and 8.9 kcal/mol |
| M147A | 0 kcal/mol | 3.1 kcal/mol/M | 2.8 M | 8.9 kcal/mol |
| Q143A |  | 3.8 kcal/mol/M and 3 kcal/mol/M | 1.9 M and 3 M | 7.2 kcal/mol and 9 kcal/mol |
